Test results published in US20190112348A1.

Legend:
[1] = target: purified recombinant human insulin receptor (either with or without exon 11) (human) (UniProt P06213); assay: SPA competition vs A14Tyr[125I]-human insulin on recombinant human insulin receptor, relative to human insulin, 4.5% HSA in buffer
[2] = target: purified recombinant human insulin receptor (either with or without exon 11) (human) (UniProt P06213); assay: SPA competition vs A14Tyr[125I]-human insulin on recombinant human insulin receptor, relative to human insulin, 0% HSA

Chain of purified recombinant human insulin receptor (either with or without exon 11) (human) (P06213 other isoform, or with tags, fused parts or gaps limits assumed, form in doubt): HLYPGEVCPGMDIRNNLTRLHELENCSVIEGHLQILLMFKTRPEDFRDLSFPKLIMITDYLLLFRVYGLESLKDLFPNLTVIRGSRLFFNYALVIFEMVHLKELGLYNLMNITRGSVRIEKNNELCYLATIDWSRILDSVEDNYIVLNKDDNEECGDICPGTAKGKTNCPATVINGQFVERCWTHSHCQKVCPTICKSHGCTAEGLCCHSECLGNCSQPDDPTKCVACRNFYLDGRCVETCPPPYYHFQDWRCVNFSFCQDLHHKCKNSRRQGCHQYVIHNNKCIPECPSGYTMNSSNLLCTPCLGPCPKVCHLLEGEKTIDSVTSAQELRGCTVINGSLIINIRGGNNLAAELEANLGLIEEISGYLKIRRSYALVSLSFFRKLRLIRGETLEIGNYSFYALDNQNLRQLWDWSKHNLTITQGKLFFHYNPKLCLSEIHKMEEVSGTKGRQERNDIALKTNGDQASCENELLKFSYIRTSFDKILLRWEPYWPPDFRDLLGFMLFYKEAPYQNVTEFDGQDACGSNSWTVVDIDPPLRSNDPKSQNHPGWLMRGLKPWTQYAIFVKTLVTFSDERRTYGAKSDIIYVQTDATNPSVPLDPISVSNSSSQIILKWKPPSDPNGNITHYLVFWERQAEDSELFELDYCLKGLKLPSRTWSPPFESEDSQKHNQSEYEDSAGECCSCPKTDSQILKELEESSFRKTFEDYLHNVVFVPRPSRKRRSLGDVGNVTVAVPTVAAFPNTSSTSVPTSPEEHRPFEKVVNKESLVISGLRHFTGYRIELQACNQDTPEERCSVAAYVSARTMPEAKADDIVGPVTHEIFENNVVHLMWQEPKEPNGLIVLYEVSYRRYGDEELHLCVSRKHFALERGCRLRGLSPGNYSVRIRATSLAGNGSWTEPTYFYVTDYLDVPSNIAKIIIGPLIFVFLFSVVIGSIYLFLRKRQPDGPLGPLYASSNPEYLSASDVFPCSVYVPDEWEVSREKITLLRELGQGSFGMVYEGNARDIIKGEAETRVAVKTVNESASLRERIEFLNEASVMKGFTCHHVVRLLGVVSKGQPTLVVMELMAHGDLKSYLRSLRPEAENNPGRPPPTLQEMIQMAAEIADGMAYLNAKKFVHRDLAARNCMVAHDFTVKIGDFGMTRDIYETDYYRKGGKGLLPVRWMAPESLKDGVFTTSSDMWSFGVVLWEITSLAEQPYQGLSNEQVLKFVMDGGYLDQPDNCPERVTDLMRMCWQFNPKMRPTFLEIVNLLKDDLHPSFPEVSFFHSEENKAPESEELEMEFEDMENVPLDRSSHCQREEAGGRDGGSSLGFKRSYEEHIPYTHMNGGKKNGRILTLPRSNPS

Relative IR-A affinity (@ 4.5% HSA) [1] [%]	Relative IR-A affinity (@ 0% HSA) [2] [%]	Substance
0.08	1.9	A14E, B25H, B27K(N^εOctadecanedioyl-γGlu-OEG-OEG), desB28, desB29, desB30 Human Insulin (from UniProt P01308 90-110; P01308 25-51) (ligand)
–	2.5	A14E, B25H, desB27, B29K(N^εOctadecanedioyl-γGlu-OEG-OEG), desB30 Human Insulin (from UniProt P01308 90-110; P01308 25-50; P01308 52-53) (ligand)
